The text below walks through data of article PMC2613574.

Assay [1] has as its target FNfn10 wild-type N fragment displayed on the yeast surface (Aga2p fusion, FLAG tag) (human). Put plainly: flow cytometry on cells.
Assay [2] concerns the target FNfn10 ND7N fragment displayed on the yeast surface (Aga2p fusion, FLAG tag) (human). Description: flow cytometry on cells. Background: In flow cytometry, cells or beads pass a laser one at a time.

Take “FNfn10 C fragment, wild type, co-secreted in yeast (V5 tag) (domain or fragment)”: in assay [1], the log(B/E ratio) was determined as 1.3.
By Kd is commonly meant the constant that tells how readily two partners part at equilibrium. Read a high Kd as weaker binding. Consider “ubiquitin fusion of the FNfn10 C fragment with the V5 tag (domain or fragment)”, for which the dissociation constant (Kd) in assay [2] is 25.3 nM.
